Assay [1] addresses 猕猴IL-13Rα1 (转染的Ba/F3细胞) (猕猴 (Cyno)). The assay can be described thus: FACS, transfected against parental Ba/F3 cells, negative control.
Assay [2] has the same target. Nature of the assay: FACS on Ba/F3 cells transfected with cynomolgus IL-13Rα1, negative control.
Assay [3] has as its target IL-13Rα1 (人B细胞、单核细胞、TF-1细胞、HFL-1细胞、支气管平滑肌细胞上) (human) (UniProt P78552). The assay can be described thus: cell-based or functional assay.
Assay [4] deals with 人IL-13Rα1 (表达人IL-13Rα1和人IL-4Rα的CHO细胞) (human) (UniProt P78552). Nature of the assay: displacement of 125I-IL-13 from CHO cells expressing human IL-13Rα1 and IL-4Rα.
Assay [5] deals with 猕猴IL-13Rα1 (转染的Ba/F3细胞) (猕猴 (Cyno)). Nature of the assay: FACS on Ba/F3 cells transfected with cynomolgus IL-13Rα1.
Assay [6] shares this target. The assay can be described thus: FACS, transfected against parental Ba/F3 cells. On the technique in general: Flow cytometry measures light scatter and fluorescence of single cells or particles in a stream.
Assay [7] has the same target. Nature of the assay: FACS, transfected against parental Ba/F3 cells, secondary antibody alone.
For assay [8] the target is unchanged. The assay can be described thus: FACS on Ba/F3 cells transfected with cynomolgus IL-13Rα1, secondary antibody alone.
Assay [9] has as its target T1, IL-13Rα1 (人B细胞、单核细胞、TF-1细胞、HFL-1细胞、支气管平滑肌细胞上) (human, UniProt P78552 22-427).
T1 sequence (looked up): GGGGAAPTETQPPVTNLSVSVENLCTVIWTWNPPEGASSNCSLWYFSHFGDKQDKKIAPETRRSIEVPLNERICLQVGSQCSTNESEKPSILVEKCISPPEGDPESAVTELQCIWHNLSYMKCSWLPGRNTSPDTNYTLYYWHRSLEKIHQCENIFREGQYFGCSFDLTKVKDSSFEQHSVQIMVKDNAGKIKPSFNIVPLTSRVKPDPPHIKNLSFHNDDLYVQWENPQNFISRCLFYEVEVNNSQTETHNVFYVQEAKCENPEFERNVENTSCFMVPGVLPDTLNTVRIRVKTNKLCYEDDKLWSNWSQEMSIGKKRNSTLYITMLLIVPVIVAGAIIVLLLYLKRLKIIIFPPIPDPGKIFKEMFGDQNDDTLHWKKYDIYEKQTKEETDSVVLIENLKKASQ
Nature of the assay: cell-based or functional assay.

The target in assay [10] is 猕猴IL-13Rα1 (转染的Ba/F3细胞) (猕猴 (Cyno)). Nature of the assay: FACS on Ba/F3 cells transfected with cynomolgus IL-13Rα1, 10 μg/ml antibody.
The target of assay [11] is T2, 从hIL-13Rα1:hFc嵌合蛋白切割的hIL-13Rα1的细胞外结构域 (human, UniProt P78552 22-343).
T2 construct: extracellular domain; also called 切割的hIL-13Rα1分子
T2 sequence (looked up): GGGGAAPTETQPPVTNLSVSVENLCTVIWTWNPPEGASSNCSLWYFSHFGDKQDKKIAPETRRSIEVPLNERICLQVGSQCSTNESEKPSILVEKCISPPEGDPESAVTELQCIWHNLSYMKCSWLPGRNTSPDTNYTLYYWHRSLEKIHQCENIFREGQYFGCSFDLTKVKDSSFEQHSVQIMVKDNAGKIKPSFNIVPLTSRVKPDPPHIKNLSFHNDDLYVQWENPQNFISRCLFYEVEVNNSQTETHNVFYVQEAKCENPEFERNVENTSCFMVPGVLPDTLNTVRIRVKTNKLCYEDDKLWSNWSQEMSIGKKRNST
The assay can be described thus: SPR Biacore 3000, C1 chip, antibody captured by anti-hFcγ, cleaved hIL-13Rα1 ECD as analyte, 1:1 Langmuir. On the technique in general: In SPR one partner is held on a chip, and binding of the other changes the refractive index at the surface.

For assay [12], the target named is 猕猴IL-13Rα1 (转染的Ba/F3细胞) (猕猴 (Cyno)). The assay can be described thus: FACS, transfected against parental Ba/F3 cells. This is another data set of the same source.
For assay [13] the target is unchanged. Nature of the assay: FACS on Ba/F3 cells transfected with cynomolgus IL-13Rα1, 10 μg/ml antibody. This is another data set of the same source.

As to 正常山羊IgG (antibody), the 在Cyno IL-13Rα1存在下MFI的增加倍数 in [1] amounted to 2.4. The molecule also returned an MFIBa/F3 Cyno IL-13Rα1 in assay [2] of 5.7 MFI.
In [3], “多克隆山羊抗人IL-13Rα1抗体AF152(R&D Systems) (antibody)” displayed a B淋巴细胞上CD23上调的抑制 IC50 of 13.6 nM, an IL-4诱导的增殖的IC50 of 74.4 nM, an IL-13诱导的Stat-6磷酸化的抑制 IC50 of 18.6 nM and an IL-13诱导的TF-1细胞增殖的抑制 IC50 of 13.5 nM. For the same molecule, in [3], the 人单核细胞上IL-13诱导的CD23上调的抑制 IC50 was 62.9 nM and the 抑制嗜曙红粒细胞趋化因子释放 平均IC50 came to 11.5 nM. Besides, the IC50 in assay [4] was 84.8 nM. In assay [5], this molecule yielded an MFIBa/F3 Cyno IL-13Rα1 of 21.2 MFI. The 在Cyno IL-13Rα1存在下MFI的增加倍数 in assay [6] was determined as 18.
Take 正常人IgG1(Nordic) (antibody): in [1], the 在Cyno IL-13Rα1存在下MFI的增加倍数 turned out to be 6.7. Moreover, the MFIBa/F3 Cyno IL-13Rα1 in assay [2] came out at 10.2 MFI.
In the case of 仅抗人IgG-FITC (antibody), the 在Cyno IL-13Rα1存在下MFI的增加倍数 in assay [7] amounted to 2.2. In [8], this molecule came in with an MFIBa/F3 Cyno IL-13Rα1 of 5.5 MFI.

B1: HuMab LC5002-002 (antibody, human IgG1, V domains shown)
VH: EVQLLESGGGLVQPGGSLRLSCAASGFTFNIYAMNWVRQAPGKGLEWVVISGRGITTYYADSVKGRFTISRDNSKNTLYLQMNSLRADDTAVYYCAKGSSSWTDFDYWGQGTLVTVSS
VL: DIQMTQSPSSLSASVGDRVTITCRASQGISRWVAWYQQKPEKAPKSLIYAASSLQSGVPSRFSGSGSGTDFTLTISSLQPEDFATYYCQQYNSYPWTFGQGTKVEIK
notes: Human IgG1 kappa antibody from a HuMab mouse hybridoma; also called hu-MAB<h-IL-13Ralpha>LC.5002-002 (DSM ACC2709)
In the case of B1, the “IL-13诱导的TF-1细胞增殖的抑制 IC50” value in assay [9] came out at 9.21 nM. The molecule further had an MFIBa/F3 Cyno IL-13Rα1 in assay [10] of 83.7 MFI. In assay [11], this molecule registered a Kd of 0.62 nM, a koff of 0.00065 s⁻¹ and an on-rate (kon) of 1.1e+06 M⁻¹ s⁻¹. In [12], the 在Cyno IL-13Rα1存在下MFI的增加倍数 amounted to 79.8.

B2: HuMab LC5002-003 (antibody, V domains shown)
VH: EVQLLESGGDLIQPGGSLRLSCAASGFTFNIYAMNWVRQAPGKGLEWVSVISGRGITTYYADSVKGRFTISRDNSKNTLYLQMDSLRAEDTAVYYCAKGSSYWTDFDYWGQGTLVTVSS
VL: DIQMTQSPSSLSASVGDRVTITCRASQGISSWLAWYQQKPEKAPKSLIYAASSLQSGVPSRFSGSGSGTDFTLTISSLQPEDFATYYCQQYNSYPWTFGQGTKVEIK
For the molecule B2, in assay [9], the “IL-13诱导的Stat-6磷酸化的抑制 IC50” value was found to be 5.98 nM and the “IL-13诱导的TF-1细胞增殖的抑制 IC50” value is 3.07 nM. In assay [13], this molecule showed an MFIBa/F3 Cyno IL-13Rα1 of 82.4 MFI. In addition, the 在Cyno IL-13Rα1存在下MFI的增加倍数 in assay [6] came out at 79.

Broadly, the IC50 is the point on the concentration scale where inhibition reaches its midpoint. Lower therefore signals greater potency in that assay. In general, Kd refers to the equilibrium constant for the complex coming apart. The low end stands for tighter binding, the high end for weaker binding. A word on the koff: it is the first-order rate constant of dissociation. A higher koff goes with fast dissociation. As usually defined, the kon is a measure of how fast the partners come together. High values mean fast association, low ones slow association.
